Data from article doi:10.1101/2023.01.19.524411 (bioRxiv, 2023).

Molecular target: the molecule itself
Test: native gel or EMSA

B1: flag-tagged STING (stimulator of interferon genes) (natural protein, UniProt Q3TBT3 1-378, looked up)
chain: MPYSNLHPAIPRPRGHRSKYVALIFLVASLMILWVAKDPPNHTLKYLALHLASHELGLLLKNLCCLAEELCHVQSRYQGSYWKAVRACLGCPIHCMAMILLSSYFYFLQNTADIYLSWMFGLLVLYKSLSMLLGLQSLTPAEVSAVCEEKKLNVAHGLAWSYYIGYLRLILPGLQARIRMFNQLHNNMLSGAGSRRLYILFPLDCGVPDNLSVVDPNIRFRDMLPQQNIDRAGIKNRVYSNSVYEILENGQPAGVCILEYATPLQTLFAMSQDAKAGFSREDRLEQAKLFCRTLEEILEDVPESRNNCRLIVYQEPTDGNSFSLSQEVLRHIRQEEKEEVTMNAPMTSVAPPPSVLSQEPRLLISGMDQPLPLRTDLI
In the case of B1, the “stoichiometry N” value is reported as 2.
